Consider 17 molecules from patent US20210015937A1 (CRESCENDO BIOLOGICS, published 2021).

First the molecules themselves.
T1: recombinant human LAG-3-Fc (human, UniProt P18627 23-450)
T1 construct: also called human LAG-3 (R&D Systems cat no. 2319-L3); LAG3 antigen
T1 sequence: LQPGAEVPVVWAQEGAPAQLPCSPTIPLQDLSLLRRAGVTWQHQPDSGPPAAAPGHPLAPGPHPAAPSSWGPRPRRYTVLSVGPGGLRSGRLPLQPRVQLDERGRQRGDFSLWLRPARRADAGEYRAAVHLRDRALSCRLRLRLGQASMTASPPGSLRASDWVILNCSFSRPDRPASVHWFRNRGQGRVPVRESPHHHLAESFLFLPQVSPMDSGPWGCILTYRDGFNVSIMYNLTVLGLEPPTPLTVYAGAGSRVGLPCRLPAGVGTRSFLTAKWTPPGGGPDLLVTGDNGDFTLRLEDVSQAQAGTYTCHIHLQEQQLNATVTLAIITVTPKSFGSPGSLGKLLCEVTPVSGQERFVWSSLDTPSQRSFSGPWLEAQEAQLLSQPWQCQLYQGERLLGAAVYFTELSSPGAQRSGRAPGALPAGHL

T2: human LAG-3 expressed on cells (human, UniProt P18627 23-525)
T2 sequence: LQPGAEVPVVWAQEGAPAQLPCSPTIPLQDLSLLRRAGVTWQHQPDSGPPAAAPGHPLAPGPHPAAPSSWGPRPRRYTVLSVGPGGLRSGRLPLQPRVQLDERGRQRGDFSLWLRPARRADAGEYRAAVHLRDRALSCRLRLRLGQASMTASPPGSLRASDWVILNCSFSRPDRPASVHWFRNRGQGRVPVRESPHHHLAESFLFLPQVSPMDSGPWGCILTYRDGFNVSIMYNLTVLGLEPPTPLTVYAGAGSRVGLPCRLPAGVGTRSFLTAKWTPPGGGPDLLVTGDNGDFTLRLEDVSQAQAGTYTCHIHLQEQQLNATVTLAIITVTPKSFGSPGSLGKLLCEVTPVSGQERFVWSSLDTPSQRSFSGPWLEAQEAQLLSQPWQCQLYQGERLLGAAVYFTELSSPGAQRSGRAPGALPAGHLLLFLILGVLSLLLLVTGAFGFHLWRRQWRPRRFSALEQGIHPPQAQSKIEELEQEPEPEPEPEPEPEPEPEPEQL

B1: 2.77-6GS-1.1-6GS-1.1 (bispecific antibody)
chain: EVQLVESGGGLVKPGGSLRLSCAASGFTFSDSSMTWMRQAPGKGLEWVSYISSGGGVKFYTDSVKGRFTISRDNAKNSLYLQMNSLRAEDTAVYYCAREAPLRLGESPHDAFDISGQGTMVTVSSGGGGSGGGGSGGGGSGGGGSGGGGSGGGGSEVQLVESGGGVVRPGGSLRLSCSASGFTFDDYGMSWVRQAPGKGLEWVSGIHWNGGNSGYADSVKGRFTISRDNAKNSLYLQMNSLRAEDTALYYCARIPREDCSSASCYTDAIDFWGPGTMVTVSSGGGGSGGGGSGGGGSGGGGSGGGGSGGGGSEVQLVESGGGVVRPGGSLRLSCSASGFTFDDYGMSWVRQAPGKGLEWVSGIHWNGGNSGYADSVKGRFTISRDNAKNSLYLQMNSLRAEDTALYYCARIPREDCSSASCYTDAIDFWGPGTMVTVSSAAAHHHHHH
B2: VH 2.80 (VHH)
VHH: EVQLVESGGGLVKPGGSLRLSCAASGFTFSDSSMTWMRQAPGKGLEWVSYISSGGGVKFYADSVKGRFTISRDNAKNSLYLQMNSLRAEDTAVYYCAREAPLRLGESPHDAFDISGQGTMVTVSS
notes: Human VH single domain antibody against PD-1
B3: VH 2.92 (VHH)
VHH: B2 VHH with S32E
notes: as for B2
B4: VH 1.2 (VHH)
VHH: EVQLVESGGGVVRPGGSLRLSCAASGFTFDDYGMSWVRQAPGKGLEWVSGIHWNGGSTGYADSVKGRFTISRDNAKNSLYLQMNSLRAEDTALYYCARIPREDCSSASCYTDAIDFWGQGTMVTVSS
notes: Human VH single domain antibody against LAG-3; It is VH 1.1 with S23A, P119Q, N57S and S58T; also called variant 2
B5: variant 4 of VH 1.1 (VHH)
VHH: B4 VHH with N54I, S57N, T58S, Q119P
notes: 4
B6: variant 7 of VH 1.1 (VHH)
VHH: B4 VHH with Y32F, S57N, S106V, S108A, Q119P
notes: 4
B7: variant 8 of VH 1.1 (VHH)
VHH: B4 VHH with D30N, S57N, T58S, A107T, Q119P
notes: 4
B8: variant 9 of VH 1.1 (VHH)
VHH: B4 VHH with G56D, Y95H, Q119P
notes: 4
B9: variant 6 of VH 1.1 (VHH)
VHH: B4 VHH with Y32F, G55S, G56D, S57I, G59A, Q119P
notes: 4
B10: variant 3 of VH 1.1 (VHH)
VHH: B4 VHH with Q119P
notes: 4
B11: variant 5 of VH 1.1 (VHH)
VHH: B4 VHH with D30N, Y32F, S57N, Q119P
notes: 4
B12: variant 1 of VH 1.1 (VHH)
VHH: B4 VHH with S57N, T58S, Q119P
B13: VH 2.77 (VHH)
VHH: B2 VHH with A61T
B14: VH1.1-8GS-VH1.1-His6 (VHH)
chain: EVQLVESGGGVVRPGGSLRLSCSASGFTFDDYGMSWVRQAPGKGLEWVSGIHWNGGNSGYADSVKGRFTISRDNAKNSLYLQMNSLRAEDTALYYCARIPREDCSSASCYTDAIDFWGPGTMVTVSSGGGGSGGGGSGGGGSGGGGSGGGGSGGGGSGGGGSGGGGSEVQLVESGGGVVRPGGSLRLSCSASGFTFDDYGMSWVRQAPGKGLEWVSGIHWNGGNSGYADSVKGRFTISRDNAKNSLYLQMNSLRAEDTALYYCARIPREDCSSASCYTDAIDFWGPGTMVTVSSAAAHHHHHH
B15: VH1.1-12GS-VH1.1-His6 (VHH)
chain: EVQLVESGGGVVRPGGSLRLSCSASGFTFDDYGMSWVRQAPGKGLEWVSGIHWNGGNSGYADSVKGRFTISRDNAKNSLYLQMNSLRAEDTALYYCARIPREDCSSASCYTDAIDFWGPGTMVTVSSGGGGSGGGGSGGGGSGGGGSGGGGSGGGGSGGGGSGGGGSGGGGSGGGGSGGGGSGGGGSEVQLVESGGGVVRPGGSLRLSCSASGFTFDDYGMSWVRQAPGKGLEWVSGIHWNGGNSGYADSVKGRFTISRDNAKNSLYLQMNSLRAEDTALYYCARIPREDCSSASCYTDAIDFWGPGTMVTVSSAAAHHHHHH
B16: VH1.1-4GS-VH1.1-His6 (VHH)
chain: EVQLVESGGGVVRPGGSLRLSCSASGFTFDDYGMSWVRQAPGKGLEWVSGIHWNGGNSGYADSVKGRFTISRDNAKNSLYLQMNSLRAEDTALYYCARIPREDCSSASCYTDAIDFWGPGTMVTVSSGGGGSGGGGSGGGGSGGGGSEVQLVESGGGVVRPGGSLRLSCSASGFTFDDYGMSWVRQAPGKGLEWVSGIHWNGGNSGYADSVKGRFTISRDNAKNSLYLQMNSLRAEDTALYYCARIPREDCSSASCYTDAIDFWGPGTMVTVSSAAAHHHHHH
B17: VH 1.2-6GS-VH 1.2 (VHH)
chain: EVQLVESGGGVVRPGGSLRLSCAASGFTFDDYGMSWVRQAPGKGLEWVSGIHWNGGSTGYADSVKGRFTISRDNAKNSLYLQMNSLRAEDTALYYCARIPREDCSSASCYTDAIDFWGQGTMVTVSSGGGGSGGGGSGGGGSGGGGSGGGGSGGGGSEVQLVESGGGVVRPGGSLRLSCAASGFTFDDYGMSWVRQAPGKGLEWVSGIHWNGGSTGYADSVKGRFTISRDNAKNSLYLQMNSLRAEDTALYYCARIPREDCSSASCYTDAIDFWGQGTMVTVSSAAAHHHHHH
notes: It is built here from its name, the (Gly4Ser)n linker definition and the statement that the constructs used carried C-terminal AAA-His6; also called 1.2-6GS-1.2; LAG3 bivalent

Where a chain is given by its changes, count along the chain named. Numbers in names are those of the source. Some results are limits rather than exact numbers.

T3 sequence (Q15116 25-288 limits assumed): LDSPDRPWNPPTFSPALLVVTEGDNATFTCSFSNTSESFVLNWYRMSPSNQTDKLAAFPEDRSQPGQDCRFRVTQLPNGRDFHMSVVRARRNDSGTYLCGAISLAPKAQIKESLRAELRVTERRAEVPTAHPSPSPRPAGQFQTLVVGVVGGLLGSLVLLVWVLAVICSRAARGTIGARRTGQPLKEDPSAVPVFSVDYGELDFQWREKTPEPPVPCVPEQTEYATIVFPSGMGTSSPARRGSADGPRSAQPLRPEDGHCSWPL

The first assay addresses T3, human PD-1 expressed on cells (human, UniProt Q15116 25-288). The assay is described as follows: cell-based or functional assay.
Regarding B1, the “potency in the PD-1:PD-L1 NFAT-luciferase reporter assay, fold lower than monoclonal antibodies” value was above 30 fold.

Another assay has as its target T3, human PD-1 expressed on cells. The assay is described as follows: FMAT inhibition of human Fc tagged PD-L1 binding to CHO human PD-1 cells. As to the method: All reagents and serially diluted VH were prepared in FMAT assay buffer. […] Plates were incubated for 2 hours at room temperature then fluorescence measured in the FL2 (502 nm-537 nm) and FL5 (677-800 nm) channels on the Mirrorball plate reader (TTP) following excitation at 488 nm and 640 nm. Data was expressed as a % of the total binding control (i.e. % control) after subtraction of the background signal determined from the non-specific binding control wells.
As usually defined, the IC50 is the point on the concentration scale where inhibition reaches its midpoint. B2 yielded a concentration for half-maximal inhibition (IC50) of 1.82 nM.

B3 registered an IC50 of 2.8 nM.

The target in another assay is T1, recombinant human LAG-3-Fc. The experiment in a line: BLI (Octet); human LAG-3-Fc amine-coupled to biosensor, VH in solution, 1:1 fit. On the procedure:
Binding kinetics were measured in real-time bio-layer interferometer based biosensor Octet (ForteBio). […] All the binding studies were performed in HBS-ET Octet kinetics buffer. Biosensors were washed in Octet kinetics buffer in between different steps. A seven point, two-fold dilution series of each Humabody® VH was made with a top concentration of 1.6 μM. The contact time for each of the association steps was 150 seconds and the dissociation step was 300-400 seconds. Kinetic association (kₐ) and dissociation (kd) rate constants were determined by processing and fitting the data to a 1:1 binding model using ForteBio Analysis software.
In general, Kd refers to the concentration at which binding is half-saturated. For orientation: koff means a measure of how fast the partners let go of each other. Usually kon stands for the second-order rate constant of association. On to B4, for which the equilibrium dissociation constant (Kd) came to 72.1 nM, the koff turned out to be 0.00179 s⁻¹ and the kon was found to be 24800 M⁻¹ s⁻¹.

Consider B5, for which the Kd came out at 8.41 nM, the dissociation rate constant (koff) amounted to 0.000479 s⁻¹ and the kon stood at 56900 M⁻¹ s⁻¹.

Turning to B6, the Kd turned out to be 35.5 nM, the koff is 0.000847 s⁻¹ and the kon is 23900 M⁻¹ s⁻¹.

As for B7, the Kd was found to be 13 nM, the koff worked out at 0.00126 s⁻¹ and the kon was 96700 M⁻¹ s⁻¹.

B8: the Kd turned out to be 53.2 nM, the koff is 0.00383 s⁻¹ and the kon was determined as 72100 M⁻¹ s⁻¹.

For B9, the Kd is 31.3 nM, the koff is 0.00343 s⁻¹ and the kon stood at 110000 M⁻¹ s⁻¹.

B10: the Kd was 34.5 nM, the koff stood at 0.000899 s⁻¹ and the kon amounted to 26100 M⁻¹ s⁻¹.

With B11, the dissociation constant (Kd) was determined as 7.9 nM, the koff was determined as 0.000517 s⁻¹ and the kon was determined as 65500 M⁻¹ s⁻¹.

In the case of B12, the Kd came out at 35.5 nM, the koff worked out at 0.000912 s⁻¹ and the kon amounted to 27000 M⁻¹ s⁻¹.

A further assay has as its target T3, human PD-1 expressed on cells. The assay is described as follows: cell-based or functional assay. The source holds these as a separate data set.
As to B13, the “EC50 (M), NFAT-Luciferase Reporter Gene assay (PD-1:PD-L1)” value (“EC50 (M) … (PD-1:PD-L1)” for short) was determined as 9.7e-09 M.

Consider B3, for which the “EC50 (M) … (PD-1:PD-L1)” value came out at 1.4e-08 M.

For the molecule B1, the “EC50 (M) … (PD-1:PD-L1)” value came out at 3.7e-08 M.

Another assay deals with T2, human LAG-3 expressed on cells. The assay is described as follows: cell-based or functional assay.
Turning to B14, the “EC50 (M), NFAT-Luciferase Reporter Gene assay (LAG-3:MHCII)” value (from here on “EC50 (M) … (LAG-3:MHCII)”) was 5.4e-09 M.

In the case of B15, the “EC50 (M) … (LAG-3:MHCII)” value was found to be 3.3e-09 M.

Turning to B16, the “EC50 (M) … (LAG-3:MHCII)” value was 1.4e-09 M.

Regarding B1, the “EC50 (M) … (LAG-3:MHCII)” value is 6.6e-09 M.

A further assay addresses T1, recombinant human LAG-3-Fc. The experiment in a line: BLI (Octet); human LAG-3-Fc captured on protein G biosensors, 1:1 fit. As to the method: (§1) Binding kinetics for multi-valent and bispecific VH were also measured in real-time bio-layer interferometer based biosensor Octet (ForteBio). […] All the binding studies were performed in HBS-ET Octet kinetics buffer. Biosensors were washed in Octet kinetics buffer in between different steps. […] The contact time for each of the association steps was 150 seconds and the dissociation step was 400 seconds. […] To compare the constructs, kinetic association (kₐ) and dissociation (kd) rate constants were determined by processing and fitting the data to a 1:1 binding model using ForteBio Analysis software.
(In general: BLI is a label-free optical method that tracks binding on a fibre tip over time.)
For B17, the Kd was 0.744 nM, the koff worked out at 0.00112 s⁻¹ and the kon came out at 1.5e+06 M⁻¹ s⁻¹.

The target in another assay is T4, Rhesus monkey LAG-3 (used as cynomolgus LAG-3) (Rhesus monkey (called cynomolgus in the …)).
T4 construct: extracellular domain
The experiment in a line: BLI (Octet); cynomolgus LAG-3 immobilised on ARG2 sensors, 1:1 fit. As to the method: as §1
Molecule B17 came in with a dissociation constant (Kd) of 0.536 nM, a koff of 0.000148 s⁻¹ and a kon of 276000 M⁻¹ s⁻¹.
